The RNAGym collection of RNA variant scans (doi:10.1021/acssynbio.7b00057)

B1: Pistol ribozyme (parent)
chain: GGGUCGUUGUUCCAUAAUCGCGUGGAUAUGGCACGCAAGUUUCUACCGGGCACCGUAAAUGUCCGACUGGAGCCGUUCGGGCGGCUAUAAACAGACCUCAGGCCCGAAGCGUGGCGGCACCUGCCGCCGGUGGUAAAAAAGAUCGGAAGAGCACACGUCU

Variants of: B1
Assay: aptazyme ON/OFF ratio, guanine; higher = stronger switching; co-transcriptional cleavage with and without guanine

Variant	aptazyme ON/OFF ratio
U7G U8C G9U U10A U11G C12G C13A	1.13
U7G U8C G9U U10A U11G C12G C13U	1.1
U7G U8C G9U U10A U11G C12G C13G	1.13
U7G U8C G9U U11C C12G C13A	1.3
U7G U8C G9U U11C C12G C13U	1.32
U7G U8C G9U U11C C12G C13G	1.32
U7G U8C U10A U11A C12U C13U	1.24
U7G U8C U10A U11A C12U C13A	1.2
U7G U8C U10A U11A C12U C13G	1.2
U7G U8C G9U U10C C12A C13G	1.27
U7G U8C G9U U10C C12A C13U	1.58
U7G U8C G9U U10C C12A C13A	1.49
U7G U8C G9U U10G U11C C12G C13U	1.29
U7G U8C G9U U10G U11C C12G C13G	1.04
U7G U8C G9U U10G U11C C12G C13A	1.26
U7G U8C U10A C13A	1.11
U7G U8C U10A C13G	1.08
U7G U8C U10A C13U	1.12
U7G U8C G9U U10G U11G C12G	1.31
U7G U8C G9U U10G U11G C12U	1.35
U7G U8C G9U U10G U11G C12A	1.31
U7G U8C U10A U11G C12G C13A	1.22
U7G U8C U10A U11G C12G C13U	1.25
U7G U8C U10A U11G C12G C13G	1.3

Variant	aptazyme ON/OFF ratio
U7G U8C G9U U11C	2.88
U7G U8C G9U U11G	1.36
U7G U8C G9U U11A	1.8
U7G U8C G9U U11A C13U	1.56
U7G U8C G9U U11A C13A	1.22
U7G U8C G9U U11A C13G	1.02
U7G U8C U10A U11C C12G	1.16
U7G U8C U10A U11C C12U	1.03
U7G U8C U10A U11C C12A	1.24
U7G U8C U10A U11A C13U	1.21
U7G U8C U10A U11A C13A	1.18
U7G U8C U10A U11A C13G	1.18
U7G U8C G9U U11G C13G	1.05
U7G U8C G9U U11G C13A	1.32
U7G U8C G9U U11G C13U	1.41
U7G U8C G9U U10G U11A C13G	1.07
U7G U8C G9U U10G U11A C13U	1.12
U7G U8C G9U U10G U11A C13A	1.08
U7G U8C U10C C12G	1.37
U7G U8C U10C C12U	3.24
U7G U8C U10C C12A	1.22
U7G U8C G9U U10C U11C C12A C13U	1.54
U7G U8C G9U U10C U11C C12A C13G	1.22
U7G U8C G9U U10C U11C C12A C13A	1.52

Variant	aptazyme ON/OFF ratio
U7G U8C G9U U11A C12G C13G	1.13
U7G U8C G9U U11A C12G C13A	1.1
U7G U8C G9U U11A C12G C13U	1.22
U7G U8C G9U U10A U11C C12A C13A	1.28
U7G U8C G9U U10A U11C C12A C13U	1.59
U7G U8C G9U U10A U11C C12A C13G	1.33
U7G U8C G9U U10G U11A C12U C13G	1.23
U7G U8C G9U U10G U11A C12U C13A	1.21
U7G U8C G9U U10G U11A C12U C13U	1.36
U7G U8C G9U U10G U11C C12U C13U	1.16
U7G U8C G9U U10G U11C C12U C13G	1.22
U7G U8C G9U U10G U11C C12U C13A	1.34
U7G U8C G9U U10A C12A	1.88
U7G U8C G9U U10A C12G	1.77
U7G U8C G9U U10A C12U	2.85
U7G U8C U10A U11A C12G C13G	1.22
U7G U8C U10A U11A C12G C13A	1.1
U7G U8C U10A U11A C12G C13U	1.26
U7G U8C G9U U10A U11A C12U	2.3
U7G U8C G9U U10A U11A C12A	1.63
U7G U8C G9U U10A U11A C12G	1.6
U7G U8C U10C U11A C12A C13A	1.26
U7G U8C U10C U11A C12A C13U	1.21
U7G U8C U10C U11A C12A C13G	1.14

Variant	aptazyme ON/OFF ratio
U7G U8C G9U U10G U11A C12A	1.3
U7G U8C G9U U10G U11A C12G	1.34
U7G U8C G9U U10G U11A C12U	1.1
U7G U8C G9U U11A C12A	2.91
U7G U8C G9U U11A C12U	2.56
U7G U8C G9U U11A C12G	2.17
U7G U8C G9U U11C C13U	1.3
U7G U8C G9U U11C C13G	1.04
U7G U8C G9U U11C C13A	1.38
U7G U8C G9U C12U	4.27
U7G U8C G9U U10A U11G C12A C13A	1.1
U7G U8C G9U U10A U11G C12A C13G	1.09
U7G U8C G9U U10A U11G C12A C13U	1.11
U7G U8C G9U U10A U11G C12U C13G	1.11
U7G U8C G9U U10A U11G C12U C13A	1.2
U7G U8C G9U U10A U11G C12U C13U	1.16
U7G U8C G9U U11A C12A C13G	1.14
U7G U8C G9U U11A C12A C13U	1.5
U7G U8C G9U U11A C12A C13A	1.28
U7G U8C U10A U11A C12A C13A	1.13
U7G U8C U10A U11A C12A C13G	1.14
U7G U8C U10A U11A C12A C13U	1.15
U7G U8C G9U U11C C12G	1.37
U7G U8C G9U U11C C12U	2.13

Variant	aptazyme ON/OFF ratio
U7G U8C G9U U11C C12A	1.31
U7G U8C G9U U11G C12U C13G	1.28
U7G U8C G9U U11G C12U C13U	1.35
U7G U8C G9U U11G C12U C13A	1.26
U7G U8C G9U U10G C12G C13A	1.28
U7G U8C G9U U10G C12G C13G	1.23
U7G U8C G9U U10G C12G C13U	1.23
U7G U8C G9U U10G U11G C12G C13A	1.11
U7G U8C G9U U10G U11G C12G C13G	1.23
U7G U8C G9U U10G U11G C12G C13U	1.25
U7G U8C G9U U11G C12U	1.55
U7G U8C G9U U11G C12A	1.44
U7G U8C G9U U11G C12G	1.34
U7G U8C G9U U10C C13A	1.37
U7G U8C G9U U10C C13G	1.12
U7G U8C G9U U10C C13U	1.47
U7G U8C U10C C13A	1.07
U7G U8C U10C C13G	1.07
U7G U8C U10C C13U	1.64
U7G U8C G9U U10A U11A C12U C13A	1.23
U7G U8C G9U U10A U11A C12U C13G	1.16
U7G U8C G9U U10A U11A C12U C13U	1.33
U7G U8C G9U U10A C13U	2.29
U7G U8C G9U U10A C13G	1.08

Variant	aptazyme ON/OFF ratio
U7G U8C G9U U10A C13A	1.35
U7G U8C U10A C12U C13G	1.26
U7G U8C U10A C12U C13A	1.36
U7G U8C U10A C12U C13U	1.12
U7G U8C G9U U10A	4.06
U7G U8C G9U U10C	1.64
U7G U8C G9U U10G	3.44
U7G U8C G9U U10C U11A C13A	1.49
U7G U8C G9U U10C U11A C13U	1.79
U7G U8C G9U U10C U11A C13G	1.06
U7G U8C G9U C12U C13A	1.18
U7G U8C G9U C12U C13G	1.16
U7G U8C G9U C12U C13U	1.41
U7G U8C G9U U10C U11A C12G C13G	1.31
U7G U8C G9U U10C U11A C12G C13A	1.39
U7G U8C G9U U10C U11A C12G C13U	1.2
U7G U8C U10A U11A C12G	1.13
U7G U8C U10A U11A C12A	1.05
U7G U8C U10A U11A C12U	1.43
U7G U8C G9U U11C C12A C13A	1.36
U7G U8C G9U U11C C12A C13U	1.23
U7G U8C G9U U11C C12A C13G	1.32
U7G U8C G9U U11A C12U C13U	1.41
U7G U8C G9U U11A C12U C13A	1.46

Variant	aptazyme ON/OFF ratio
U7G U8C G9U U11A C12U C13G	1.17
U7G U8C U10A U11G C12U C13U	1.16
U7G U8C U10A U11G C12U C13A	1.22
U7G U8C U10A U11G C12U C13G	1.16
U7G U8C G9U U10G U11C C12A C13G	1.45
U7G U8C G9U U10G U11C C12A C13U	1.37
U7G U8C G9U U10G U11C C12A C13A	1.23
U7G U8C G9U U10A U11C C12G	1.26
U7G U8C G9U U10A U11C C12A	2.56
U7G U8C G9U U10A U11C C12U	1.72
U7G U8C U10A U11C C12U C13G	1.12
U7G U8C U10A U11C C12U C13U	1.07
U7G U8C U10A U11C C12U C13A	1.13
U7G U8C G9U U10C C12A	2.08
U7G U8C G9U U10C C12U	1.12
U7G U8C G9U U10C C12G	1.87
U7G U8C U10C C12U C13G	1.19
U7G U8C U10C C12U C13U	1.27
U7G U8C U10C C12U C13A	1.15
U7G U8C G9U U10C U11C C13A	1.34
U7G U8C G9U U10C U11C C13G	1.08
U7G U8C G9U U10C U11C C13U	1.52
U7G U8C U10A U11C C12G C13A	1.11
